The source of these data is patent US20250320312A1 (OXITOPE PHARMA B V, published 2025).

Assay [1] has as its target BSA (UniProt P02769). Put plainly: scFv ELISA.
In assay [2] the target is T1, Peptide 1: Biotin-AGGGGSGGGGSGGGGSAAA-[Tyr(PC)]-acid (N-terminal biotin; C-terminal Tyr(PC), PC = p-diazophenyl phosphoryl choline; C-terminal acid).
T1 construct: synthetic PC-conjugated peptide; the antibodies are directed at the phosphocholine group
T1 peptide: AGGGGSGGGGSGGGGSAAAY
Put plainly: scFv ELISA. In short, it runs like this:
(§1)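 Bound scFv was read as OD450 after HRP–anti-V5 detection, TMB development and HCl stop. PPE with BSA was incubated 1 h at RT on BSA-blocked wells coated overnight at 4° C. with peptide, or on streptavidin wells loaded 1 h with biotinylated PC-peptides at 1 μg/mL.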

In assay [3] the target is T2, Peptide 5: Biotin-AEAAAKEAAAKEAAAKEAAAKAAA-[Tyr(PC)]-acid (N-terminal biotin; C-terminal Tyr(PC), PC = p-diazophenyl phosphoryl choline; C-terminal acid).
T2 construct: synthetic PC-conjugated peptide; the antibodies are directed at the phosphocholine group
T2 peptide: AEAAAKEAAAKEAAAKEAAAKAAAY
Put plainly: scFv ELISA. In short, it runs like this: as §1
Background: An ELISA detects its analyte on a solid surface through an enzyme-linked reagent.

The target in assay [4] is T3, Peptide 8: Biotin-AEAAAKEAAAKEAAAKEAAAKAAA-Tyr-acid (N-terminal biotin; C-terminal acid).
T3 construct: control peptide without PC
T3 peptide: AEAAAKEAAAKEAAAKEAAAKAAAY
Put plainly: scFv ELISA. The essentials: as §1

The target of assay [5] is T4, Peptide 4: Biotin-AGGGGSGGGGSGGGGSAAA-Tyr-acid (N-terminal biotin; C-terminal acid).
T4 construct: control peptide without PC
T4 peptide: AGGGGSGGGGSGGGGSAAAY
Put plainly: scFv ELISA. In short, it runs like this: as §1

In assay [6] the target is BSA (UniProt P02769). Put plainly: scFv ELISA, periplasmic extract on coated BSA, anti-V5-HRP detection.
Assay [7] concerns the target T5, Peptide 4: Biotin-…-Tyr-acid.
T5 sequence (peptide, N-terminal biotin; C-terminal acid): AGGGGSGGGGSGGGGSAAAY
Kind of assay: scFv ELISA, periplasmic extract on coated peptide, anti-V5-HRP detection.

The target of assay [8] is T6, Peptide 8: Biotin-…-Tyr-acid.
T6 sequence (peptide, N-terminal biotin; C-terminal acid): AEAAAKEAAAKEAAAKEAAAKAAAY
The assay is described as above.

For assay [9], the target named is T7, Peptide 5: Biotin-AEAAAKEAAAKEAAAKEAAAKAAA-[Tyr(PC)]-acid (N-terminal biotin; C-terminal Tyr(PC), PC = p-diazophenyl phosphoryl choline; C-terminal acid).
T7 peptide: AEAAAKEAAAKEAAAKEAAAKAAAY
Kind of assay: scFv ELISA. The essentials: as §1

In assay [10] the target is T8, Peptide 4: Biotin-AGGGGSGGGGSGGGGSAAA-Tyr-acid (N-terminal biotin; C-terminal acid; no PC).
T8 construct: control peptide without PC
T8 peptide: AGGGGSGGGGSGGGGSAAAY
Kind of assay: scFv ELISA. The essentials:
as §1

In assay [11] the target is T9, Peptide 1: Biotin-AGGGGSGGGGSGGGGSAAA-[Tyr(PC)]-acid (N-terminal biotin; C-terminal Tyr(PC), PC = p-diazophenyl phosphoryl choline; C-terminal acid).
T9 peptide: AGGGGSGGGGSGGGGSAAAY
Kind of assay: scFv ELISA. In short, it runs like this: as §1

The target in assay [12] is T10, Peptide 8: Biotin-AEAAAKEAAAKEAAAKEAAAKAAA-Tyr-acid (N-terminal biotin; C-terminal acid; no PC).
T10 construct: control peptide without PC
T10 peptide: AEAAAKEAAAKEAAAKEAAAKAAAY
Kind of assay: scFv ELISA. In short, it runs like this: as §1

The target of another assay is T11, Peptide 4 (N-terminal biotin; C-terminal Tyr without PC conjugation; C-terminal acid).
T11 construct: Unconjugated control peptide
T11 peptide: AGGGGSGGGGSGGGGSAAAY
Kind of assay: scFv ELISA, OD450. Here is the method:
(§2) For ELISA analysis of scFv binding, 96-well polystyrene plates were coated with Peptide 1, 4, 5, 8 or 100 μL BSA (10 μg/mL) in PBS at 4° C. overnight. Plates were washed three times with PBS-Tween and blocked with 100 μL 1% BSA-TBS for 1 hour at room temperature. 96-well streptavidin coated plates were coated with 100 μL biotinylated PC-peptides (1 μg/mL) in PBS for 1 hour at room temperature.
(§3) All plates were washed three times with PBS-Tween before 40 μL aliquots of PPE were added to assay plates along with 50 μL 10% BSA, and plates were incubated for 1 hour at room temperature. After washing, […] HRP conjugated anti-V5 in 5% BSA was added, and plates were incubated at room temperature for 30 mins. Plates were washed and 100 μL TMB substrate was added. Color was left to develop at room temperature before the reaction was stopped with 100 μL 1N HCl. The amount of scFv bound to each well was quantitated from absorbance measurement at 450 nm (OD450).

For a further assay, the target named is T12, Peptide 8 (N-terminal biotin; C-terminal Tyr without PC conjugation; C-terminal acid).
T12 construct: Unconjugated control peptide
T12 peptide: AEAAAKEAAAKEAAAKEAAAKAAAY
Kind of assay: scFv ELISA, OD450. Here is the method:
as §2, §3

Assay [13] addresses Peptide 5: Biotin-…-[Tyr(PC)]-acid. Kind of assay: scFv ELISA.
Assay [14] concerns the target T13, Peptide 4: Biotin-AGGGGSGGGGSGGGGSAAA-Tyr-acid (N-terminal biotin; C-terminal acid).
T13 construct: Control peptide without PC
T13 peptide: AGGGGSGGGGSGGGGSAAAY
Put plainly: scFv ELISA. In short, it runs like this:
as §1

The target in assay [15] is T14, Peptide 5: Biotin-AEAAAKEAAAKEAAAKEAAAKAAA-[Tyr(PC)]-acid (N-terminal biotin; C-terminal Tyr(PC), PC = p-diazophenyl phosphoryl choline; C-terminal acid).
T14 construct: Synthetic phosphocholine-conjugated peptide
T14 peptide: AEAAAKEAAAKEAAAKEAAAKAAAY
Put plainly: scFv ELISA. The essentials:
as §1

Assay [16] addresses T15, Peptide 1: Biotin-AGGGGSGGGGSGGGGSAAA-[Tyr(PC)]-acid (N-terminal biotin; C-terminal Tyr(PC), PC = p-diazophenyl phosphoryl choline; C-terminal acid).
T15 construct: Synthetic phosphocholine-conjugated peptide
T15 peptide: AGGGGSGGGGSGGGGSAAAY
Kind of assay: scFv ELISA. The essentials:
as §1

The target in assay [17] is T16, Peptide 8: Biotin-AEAAAKEAAAKEAAAKEAAAKAAA-Tyr-acid (N-terminal biotin; C-terminal acid).
T16 construct: Control peptide without PC
T16 peptide: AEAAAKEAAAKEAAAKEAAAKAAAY
Put plainly: scFv ELISA. In short, it runs like this:
as §1

Chain of BSA (P02769 25-607 limits assumed): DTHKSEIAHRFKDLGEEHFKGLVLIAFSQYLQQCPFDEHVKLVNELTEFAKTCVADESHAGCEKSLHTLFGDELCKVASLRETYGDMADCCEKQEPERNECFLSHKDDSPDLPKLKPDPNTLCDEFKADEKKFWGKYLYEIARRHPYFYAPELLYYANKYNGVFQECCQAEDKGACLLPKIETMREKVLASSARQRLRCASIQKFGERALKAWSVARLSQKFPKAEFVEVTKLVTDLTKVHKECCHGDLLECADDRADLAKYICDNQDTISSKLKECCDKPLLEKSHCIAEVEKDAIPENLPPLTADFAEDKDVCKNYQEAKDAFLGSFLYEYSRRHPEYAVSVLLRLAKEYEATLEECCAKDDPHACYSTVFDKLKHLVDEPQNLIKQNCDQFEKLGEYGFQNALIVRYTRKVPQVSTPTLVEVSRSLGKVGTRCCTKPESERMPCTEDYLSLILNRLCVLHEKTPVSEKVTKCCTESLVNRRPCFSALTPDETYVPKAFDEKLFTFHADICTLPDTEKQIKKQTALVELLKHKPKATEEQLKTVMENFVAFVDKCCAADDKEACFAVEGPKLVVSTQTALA

B1: PcOxP_DB02_E06 (scFv, V domains shown)
VH: EVQLLESGGGLVQPGGSLRLSCAASGFTFSDEYMEWVRQAPGKGLEWVAASRGKGNSYTTEYADSVKGRFTISRDNSKNTLYLQMNSLRAEDTAVYYCARDYYGSSYWYFDVWGQGTLVTVSS
VL: DIQMTQSPSSLSASVGDRVTITCTASESLYSSKHKVHYLAWYQQKPGKAPKLLIYGASNRYIGVPSRFSGSGSGTDFTLTISSLQPEDFATYYCAQFYSYPLTFGGGTKVEIK
notes: scFv in periplasmic extract
Consider B1, for which the OD450 with BSA [1] was found to be 0.1 OD450; in assay [2] it was 0.06 OD450; in assay [3], 0.08 OD450; in assay [4] it was 0.04 OD450; in [5] it was 0.04 OD450.

B2: PcOxP_DB04_H01 (scFv) (scFv, part only; not given: linker, domain order, V5 tag, V domains shown, not shown: another chain or arm of the molecule; small tags and cut ends)
VH: EVQLLESGGGLVQPGGSLRLSCAASGFTFSDYYMEWVRQAPGKGLEWVAASRNKYNDYTTEYADSVKGRFTISRDNSKNTLYLQMNSLRAEDTAVYYCARDYYGSSYWYFDVWGQGTLVTVSS
VL: DIVMTQSPDSLAVSLGERATINCTASESLYSSKHKVHYLAWYQQKPGQPPKLLIYGASNRYSGVPDRFSGSGSGTDFTLTISSLQAEDVAVYYCAQFYNYPLTFGGGTKVEIK
For B2, the OD450 with BSA [6] amounted to 0.07 OD450; in assay [7], 0.06 OD450; in assay [8] it was 0.07 OD450.

B3: PcOxP_DB01_H09 (scFv, V domains shown)
VH: EVQLLESGGGLVQPGGSLRLSCAASGFTFSDYYMEWVRQAPGKGLEWVAASRNKANTYTTEYADSVKGRFTISRDNSKNTLYLQMNSLRAEDTAVYYCARDYYGSSYWYDDVWGQGTLVTVSS
VL: DIVMTQSPDSLAVSLGERATINCTASESLYSSKHKVHYLAWYQQKPGQPPKLLIYGASNRYIGVPDRFSGSGSGTDFTLTISSLQAEDVAVYYCAQFYSYPLTFGGGTKVEIK
notes: scFv in periplasmic extract
Take B3: the OD450 was 0.09 OD450 with BSA [1]; 0.09 OD450 in [9]; 0.09 OD450 in assay [10]; 0.06 OD450 in assay [11]; 0.04 OD450 in [12].

B4: PcOxP_DB02_E06 (scFv) (scFv, V domains shown)
VH: EVQLLESGGGLVQPGGSLRLSCAASGFTFSDEYMEWVRQAPGKGLEWVAASRGKGNSYTTEYADSVKGRFTISRDNSKNTLYLQMNSLRAEDTAVYYCARDYYGSSYWYFDVWGQGTLVTVSS
VL: DIQMTQSPSSLSASVGDRVTITCTASESLYSSKHKVHYLAWYQQKPGKAPKLLIYGASNRYIGVPSRFSGSGSGTDFTLTISSLQPEDFATYYCAQFYSYPLTFGGGTKVEIK
notes: scFv in periplasmic extract
On to B4, for which the binding result with Peptide 4 and with Peptide 8 was “no binding (tested: avg neg. control OD450 + 3x SD)” each time.

B5: PcOxP_DB01_H07 (scFv, V domains shown)
VH: EVQLLESGGGLVQPGGSLRLSCAASGFTFSDHYMEWVRQAPGKGLEWVAASRNKYNDYTTEYADSVKGRFTISRDNSKNTLYLQMNSLRAEDTAVYYCARDIYGSSYWYFDVWGQGTLVTVSS
VL: DIVMTQSPDSLAVSLGERATINCTASESVYSSKNKKHYLAWYQQKPGQPPKLLIYGASNRYIGVPDRFSGSGSGTDFTLTISSLQAEDVAVYYCAQFYSYPLTFGGGTKVEIK
notes: scFv in periplasmic extract
On to B5, for which the OD450 worked out at 0.07 OD450 with BSA [1]; 0.92 OD450 in assay [13]; 0.05 OD450 in [10]; 0.1 OD450 in [11]; 0.05 OD450 in assay [12].

B6: PcOxP_DB02_G03 (scFv, V domains shown)
VH: EVQLLESGGGLVQPGGSLRLSCAASGFGFSDFYMEWVRQAPGKGLEWVAASRNKANDYTTEYADSVKGRFTISRDNSKNTLYLQMNSLRAEDTAVYYCARDYYGSSYWYHDVWGQGTLVTVSS
VL: DIVMTQSPDSLAVSLGERATINCTASEDLYSSKHKVHYLAWYQQKPGQPPKLLIYGTSNRYIGVPDRFSGSGSGTDFTLTISSLQAEDVAVYYCAQYYSYPLTFGGGTKVEIK
notes: scFv in periplasmic extract
Regarding B6, the OD450 was 0.06 OD450 with BSA [1]; 0.05 OD450 in assay [14]; 0.1 OD450 in assay [15]; 0.06 OD450 in [16]; 0.05 OD450 in assay [17].

B7: PcOxP_DB02_H02 (scFv, V domains shown)
VH: EVQLLESGGGLVQPGGSLRLSCAASGPTFSDFYMEWVRQAPGKGLEWVAASRNKANDYTTEYADSVKGRFTISRDNSKNTLYLQMNSLRAEDTAVYYCARDYYGSSYWYFDVWGQGTLVTVSS
VL: DIVMTQSPDSLAVSLGERATINCTASESLYSSKHKVHYLAWYQQKPGQPPKLLIYGASNRYIGVPDRFSGSGSGTDFTLTISSLQAEDVAVYYCAQFYDYPLTFGGGTKVEIK
notes: scFv in periplasmic extract
On to B7, for which the OD450 with BSA [1] came out at 0.06 OD450; in assay [13] it was 0.19 OD450; in [14], 0.04 OD450; in assay [16], 0.07 OD450; in assay [17], 0.06 OD450.
